Reference: US6835382B2, “Ii peptide therapeutics to enhance antigen presentation” (University of Massachusetts, priority 1996, dated 2004)

Columns and labels:
[1] = target: T1, HLA-DR1 molecules (Homo sapiens, UniProt P01903+P01911, A100R/D57E/F55L/F60I/F76Y/I96L/L162R/M171V/P40L/Q125E/R42F/V115G/Y59C); experiment: binding of biotin-labeled hMBP(90-102) to "empty" HLA-DR1 (assay IV); conditions: Table 39; AE101 series compound 64 μM; biotin-labeled hMBP(90-102) 50 μM, 37° C., 1 h; no enhancement = 1
T1 construct: The HLA-DR alpha gene was truncated after Asn^192 to remove transmembranal and cytoplasmic regions from the protein product; A gene coding for the HLA-DR1 beta chain was truncated after position Lys^198, again to delete the transmembranal region; made in house; host or cells: insect cell line printed as HS / H5 (Invitrogen), co-infected with two baculoviruses; concentrated culture supernatant captured on 12CA5 antibody

[2] = tested on: HLA-DR1 molecules; experiment: exchange of biotinylated hMBP(90-102) into antigenic peptide-loaded HLA-DR1 (assay III); type: binding, human; conditions: Table 38; HLA-DR1 preloaded with unlabeled hMBP(90-102) 50 μM; exchange with biotin-labeled hMBP(90-102) 50 μM, 37° C., 1 h; fraction of positive control o.d.; no enhancement = 0.08
[3] = tested on: HLA-DR1 molecules; experiment: release of biotin-labeled hMBP(90-102) from HLA-DR1 without unlabeled antigenic peptide (assay I); type: binding, human; conditions: for Relative Release: Table 36, AE101 series compound 64 μM, fraction of o.d. of positive control (PBS only = 1.0; negative control = 0.0); for release of biotin-labeled hMBP(90-102) from HLA-DR1 without second unlabeled antigenic peptide, in words: Table 36 (compounds tested at 64 μM)
[4] = tested on: murine E^k MHC class II allele; experiment: simultaneous assay, E^k allele (CH27 APC, TPc9.1 T hybridoma, THMCC82-103 or PGCC81-104); type: cell-based; conditions: Table 1, 0.075 μM THMCC82-103, supernatant 1:2
Experimental: (§1) Examples 1-4 (Tables 1-18) will be briefly considered in order to establish the concept of tolerance discussed above. These examples describe experimental results observed in the so-called “simultaneous” assay. In the simultaneous assay four principle components are cultured together for a 24 hour period. The components of this culture, which are added simultaneously, are: (a) an antigenic peptide characterized by the ability to bind specifically into the antigenic peptide binding groove of an MHC class II molecule, (b) mitomycin C-treated, MHC class II-positive antigen presenting cells (APC) bearing the MHC class II allele required for binding of the specific antigenic peptide, and presentation of the specific antigenic peptide to the antigenic peptide-specific T cell hybridoma, (c) an effector compound of the present invention, and (d) an MHC class II allele-restricted T cell hybridoma specific for the antigenic peptide and the MHC class II allele restricting its presentation. Following incubation of this primary culture, an aliquot of its supernatant is transferred into a second culture well for incubation with an interleukin-dependent lymphoblastoid cell line. The degree of stimulation of that second, indicator cell by the interleukins which had been released from the activated T cell hybridoma in the primary culture is measured by quantitating tritiated thymidine deoxyribose {[^3H]TdR} uptake into the DNA of the HT-2 indicator cells of that second culture.
(§2) In the “simultaneous assay” the four components of the assay are cultured together for a 24 h period. The components of this primary culture, added at the same time or simultaneously, are: (a) the antigenic peptide, (b) mitomycin C-treated, MHC class II-positive antigen presenting cells (APC) with the MHC class II allele required for binding of the specific antigenic peptide and its presentation to the antigenic peptide-specific T cell hybridoma, (c) an AE101 series effector peptide, and (d) MHC class II allele-restricted T cell hybridoma specific for the antigenic peptide and the MHC class II allele restricting its presentation. At the end of the incubation of this primary culture, an aliquot of its supernatant is transferred into a second culture well for incubation with an interleukin-dependent lymphoblastoid cell line. The degree of stimulation of that second, indicator cell by the interleukins which had been released from the activated T cell hybridoma in the primary culture is measured by quantitating tritiated thymidine deoxyribose {[^3H]TdR} uptake into the DNA of the HT-2 indicator cells of that second culture.
(§3) For these various assays, the following antigenic peptides were used: HEL11-25, hen egg lysozyme 11-25, AMKRHGLDNYRGYSL(A^d) (SEQ ID NO:5); HEL46-61, hen egg lysozyme 46-61, NTDGSTDYGILQINSR(Ak) (SEQ ID NO:6); HEL106-116, hen egg lysozyme 106-116, NAWVAWRNRCK (E^d) (SEQ ID NO:7); PGCC81-104, pigeon cytochrome c 81-104, […] (Ek) (SEQ ID NO:8), and THMCC82-103, tobacco hornworm moth cytochrome c 82-103, […] (Ek) (SEQ ID NO:9). AE101 series peptides were obtained from commercial sources. In general, the purity and composition of each peptide was confirmed by HPLC separation and mass spectrometry. The native protein antigens were HEL, hen egg lysozyme, and PGCC, pigeon cytochrome C. They were obtained from commercial sources.
(§4) For the experiments of these Examples, several T cell hybridomas, which are specific for certain antigenic peptides, were used. The TPc9.1 T hybridoma is specific for pigeon cytochrome C 81-104 peptide presented on the murine class II MHC allele E^k. The TPc9.1 hybridoma responds heteroclitically to tobacco hornworm moth cytochrome c 82-103 on E^k. The 3A9 T hybridoma is specific for hen egg lysozyme 46-61 on A^k. The 9.30.B2 hybridoma is specific for hen egg lysozyme 11-25 on A^d, and the G28.C9 hybridoma is specific for hen egg lysozyme 106-116 on E^d. […]

[5] = target: T2, murine E^d MHC class II allele (Mus musculus, UniProt P01904+P01915); experiment: simultaneous assay, E^d allele (A20 APC, G28.C9 T hybridoma, HEL106-116; HT-2 [3H]TdR readout); type: cell-based; design: The A20 and CH27 B cell lymphoma lines express H-2^d and H-2^k alleles, respectively; endogenous in cells; host or cells: A20 B cell lymphoma (mitomycin C-treated or paraformaldehyde-fixed); conditions: Table 1, 0.4 μM HEL106-116, supernatant 1:4
T2 sequence (P01904 26-255): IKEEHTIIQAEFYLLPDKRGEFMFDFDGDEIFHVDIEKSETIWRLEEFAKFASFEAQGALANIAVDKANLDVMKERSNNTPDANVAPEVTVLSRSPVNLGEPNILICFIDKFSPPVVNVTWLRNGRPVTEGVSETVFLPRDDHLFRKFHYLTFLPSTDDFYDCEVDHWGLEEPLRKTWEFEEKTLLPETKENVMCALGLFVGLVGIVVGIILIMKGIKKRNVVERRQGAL
T2 sequence (P01915 27-264 limits assumed): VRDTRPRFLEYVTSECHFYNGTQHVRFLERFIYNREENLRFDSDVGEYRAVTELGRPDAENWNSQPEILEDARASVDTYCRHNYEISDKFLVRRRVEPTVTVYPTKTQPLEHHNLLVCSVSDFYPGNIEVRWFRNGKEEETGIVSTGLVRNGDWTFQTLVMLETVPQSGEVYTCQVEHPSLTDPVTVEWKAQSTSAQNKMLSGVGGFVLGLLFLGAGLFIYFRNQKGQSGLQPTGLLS
Experimental: as §1, §2, §3, §4

[6] = target: soluble HLA-DR1 (HLA-DR alpha truncated after Asn192 with a C-terminal nine amino acid HA epitope tail; HLA-DR1 beta truncated after Lys198), made in Baculovirus-infected insect cells (human); experiment: release ELISA: soluble HLA-DR1 tethered by 12CA5 and preloaded with biotin-hMBP(90-102); AE peptide 64 uM, 1 h 37 C, no unlabeled peptide; biotin still bound read by avidin-HRP (1.0 = PBS control, 0.0 = no DR1; low value = released)
[7] = target: soluble HLA-DR1 (HLA-DR alpha truncated after Asn192 with a C-terminal nine amino acid HA epitope tail; HLA-DR1 beta truncated after Lys198), made in Baculovirus-infected insect cells (human); experiment: loading ELISA: empty tethered HLA-DR1 with biotin-hMBP(90-102) 50 uM and AE peptide 64 uM, 1 h 37 C; biotin bound read by avidin-HRP
[8] = target: soluble HLA-DR1 (HLA-DR alpha truncated after Asn192 with a C-terminal nine amino acid HA epitope tail; HLA-DR1 beta truncated after Lys198), made in Baculovirus-infected insect cells (human); experiment: exchange ELISA: tethered HLA-DR1 preloaded with unlabeled hMBP(90-102) 50 uM, washed; AE peptide plus biotin-hMBP(90-102) 50 uM, 1 h 37 C; biotin bound as fraction of positive control (overnight loading)
[9] = AE peptide 16 μM (second value)

AE100 (YRMKLPKPPKPVSKMR)
Relative Enhancement [1]: 3.44 | Relative Binding [2]: 0.31 | Relative Release [3]: 0.37

AE401: The N-terminal portion of AE100 (LRMKLPKPP)
Relative Enhancement [1]: 4.29 | Relative Binding [2]: 0.45 | release of biotin-labeled hMBP(90-102) from HLA-DR1 without second unlabeled antigenic peptide, in words [3]: retained capacity to release | Relative Release [3]: 0.16

AE402 (LRMKLPKPPKPV)
Relative Enhancement [1]: 0.33 | Relative Binding [2]: −0.03 | Relative Release [3]: 0.65

AE403 (MKLPKPPKPV)
Relative Enhancement [1]: 0.47 | Relative Binding [2]: 0.40 | Relative Release [3]: 0.64

AE405: comprising residue positions 5 through 12 of AE101 (LPKSAKPV)
Relative Enhancement [1]: 0.43 | Relative Binding [2]: 0.57 | release of biotin-labeled hMBP(90-102) from HLA-DR1 without second unlabeled antigenic peptide, in words [3]: sufficient to release antigenic peptide | Relative Release [3]: 0.11

YRMKLPKSAKPV [AE107]
Times Baseline Response, E^k [4, 9]: 0.8 | Times Baseline Response, E^k ([4]; AE peptide 64 μM (first value)): 1.0 | Relative Enhancement [1]: 2.59 | Relative Binding [2]: 1.04 | release of hMBP(90-102) from HLA-DR1 ([3]; AE peptide at 125 nM, additional experiments): completely release | release of biotin-labeled hMBP(90-102) from HLA-DR1 without second unlabeled antigenic peptide, in words [3]: released | Relative Release [3]: −0.07 | Times Baseline Response, E^d [5, 9]: 4.8 | Times Baseline Response, E^d ([5]; AE peptide 64 μM (first value)): 21.7

B1: AE402 (peptide)
peptide: Ac-LRMKLPKPPKPV-NH2
Relative Release (fraction of positive control o.d.) [6]: 0.65 | Relative Enhancement (of biotin-hMBP(90-102) binding to empty HLA-DR1) (relative to no AE peptide = 1) [7]: 0.33 | Relative Binding (of biotin-hMBP(90-102) to HLA-DR1) (fraction of positive control o.d.) [8]: -0.03

B2: AE403 (peptide)
peptide: Ac-MKLPKPPKPV-NH2
Relative Release (fraction of positive control o.d.) [6]: 0.64 | Relative Enhancement (of biotin-hMBP(90-102) binding to empty HLA-DR1) (relative to no AE peptide = 1) [7]: 0.47 | Relative Binding (of biotin-hMBP(90-102) to HLA-DR1) (fraction of positive control o.d.) [8]: 0.4

B3: AE405 (peptide)
peptide: Ac-LPKSAKPV-NH2
Relative Release (fraction of positive control o.d.) [6]: 0.11 | Relative Enhancement (of biotin-hMBP(90-102) binding to empty HLA-DR1) (relative to no AE peptide = 1) [7]: 0.43 | Relative Binding (of biotin-hMBP(90-102) to HLA-DR1) (fraction of positive control o.d.) [8]: 0.57

B4: AE107 (peptide)
peptide: YRMKLPKSAKPV
Relative Release (fraction of positive control o.d.) [6]: -0.07 | Relative Enhancement (of biotin-hMBP(90-102) binding to empty HLA-DR1) (relative to no AE peptide = 1) [7]: 2.59 | Relative Binding (of biotin-hMBP(90-102) to HLA-DR1) (fraction of positive control o.d.) [8]: 1.04

B5: AE100 (peptide)
peptide: YRMKLPKPPKPVSKMR
Relative Release (fraction of positive control o.d.) [6]: 0.37 | Relative Enhancement (of biotin-hMBP(90-102) binding to empty HLA-DR1) (relative to no AE peptide = 1) [7]: 3.44 | Relative Binding (of biotin-hMBP(90-102) to HLA-DR1) (fraction of positive control o.d.) [8]: 0.31
